Residue numbers refer to the chain shown, from its start. Where no end group is shown, it is not given here.
T1: wild-type BtuB (E. coli, UniProt P06129 21-614)
T1 construct: Cyanocobalamin was present at a 100-fold molar excess during reconstitution; also called vitamin B12 TBDT receptor of E. coli
T1 sequence (looked up): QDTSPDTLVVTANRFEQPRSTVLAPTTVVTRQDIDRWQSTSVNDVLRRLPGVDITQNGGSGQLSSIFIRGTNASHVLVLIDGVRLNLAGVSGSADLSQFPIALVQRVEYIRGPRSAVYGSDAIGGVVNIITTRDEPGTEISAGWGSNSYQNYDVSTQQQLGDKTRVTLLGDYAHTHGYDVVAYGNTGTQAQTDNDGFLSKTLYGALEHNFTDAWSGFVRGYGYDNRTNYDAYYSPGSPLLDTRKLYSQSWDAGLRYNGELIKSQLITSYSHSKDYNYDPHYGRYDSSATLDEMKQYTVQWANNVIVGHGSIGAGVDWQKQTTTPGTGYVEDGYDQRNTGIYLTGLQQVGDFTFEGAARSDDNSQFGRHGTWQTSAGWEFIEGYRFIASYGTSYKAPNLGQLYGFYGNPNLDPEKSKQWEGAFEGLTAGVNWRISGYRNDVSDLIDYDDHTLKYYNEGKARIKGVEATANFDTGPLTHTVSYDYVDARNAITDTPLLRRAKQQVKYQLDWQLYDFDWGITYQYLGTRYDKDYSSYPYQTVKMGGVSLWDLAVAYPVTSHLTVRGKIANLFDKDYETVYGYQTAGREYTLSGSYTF

T2: BtuB3A (BtuB I80A/L85A/L96A) (E. coli, UniProt P06129 21-614, I80A | L85A | L96A)
T2 sequence (looked up): T1 sequence (looked up) with I80A, L85A, L96A

T3: BtuB XL_(loop) (BtuB V29C/V45C) (E. coli, UniProt P06129 21-614, V29C | V45C, disulfide bridge between C29 and C45 (reduced on addition of 2 mM DTT))
T3 sequence (looked up): T1 sequence (looked up) with V29C, V45C

B1: TonBCTD (globular C-terminal domain of TonB without the linker) (domain or fragment)
chain: not shown
notes: Gly-Cys between the (His)6 tag and TonBCTD, translated from the printed forward primer (GGATGT); the cysteine is for AFM surface attachment; C-terminal domain of TonB of E. coli; also called TonB C-terminal domain; source: E. coli BL21 (DE3), pET-23a(+), purified (Ni Sepharose, size exclusion chromatography)
B2: Ton box peptide from BtuB (TB_(BtuB)) labelled with Alexa Fluor 488 C5 maleimide (peptide)
peptide: PDTLVVTANRGSWSC(Alexa Fluor 488 C5 maleimide)
notes: also called TB_(BtuB)-Alexa fluor 488; Ton box_(BtuB) peptide; source: synthetic peptide
B3: TonB_(ΔTMD) (soluble TonB, residues 33–239, deletion of the N-terminal transmembrane helix) (domain or fragment)
chain: not shown
notes: Gly-Cys between the (His)6 tag and TonB, translated from the printed forward primer (GGCTGT); the cysteine is for AFM surface attachment; TonB of E. coli, cloned from the genome of E. coli BL21 (DE3), residues 33-239 (without the transmembrane domain, residues 1-32); the forward primer begins at HQVIELP; In the AFM experiments the engineered cysteine was coupled to NHS-PEG24-maleimide on the …

Legend:
Conditions in all cases: both partners purified
wild-type BtuB = biological target: T1, wild-type BtuB; test: single-molecule force spectroscopy (AFM); TonB construct on the AFM probe through NHS-PEG24-maleimide, TBDT (BtuB, its variants or FhuA) in E. coli polar lipid extract liposomes with its ligand adsorbed on mica; dwell 1 s, retraction 1,000 nm s^-1 unless stated otherwise; 25 mM Tris-HCl pH 8.0, 128 mM NaCl, 25 °C; 2 mM DTT added where stated
[1] = biological target: B3; test: MST; Alexa Fluor 488-labelled TB_(BtuB) peptide at constant concentration (500 nM mixed 1:1), TonB_(ΔTMD) titrated 7 nM-244 μM in 16 dilutions; 25 mM Tris-HCl pH 7.5, 128 mM NaCl, 5 min at room temperature; fit by the law of mass action
[2] = biological target: T2, BtuB3A (BtuB I80A/L85A/L96A); test: single-molecule force spectroscopy (AFM); TonB construct on the AFM probe through NHS-PEG24-maleimide, TBDT (BtuB, its variants or FhuA) in E. coli polar lipid extract liposomes with its ligand adsorbed on mica; dwell 1 s, retraction 1,000 nm s^-1 unless stated otherwise; 25 mM Tris-HCl pH 8.0, 128 mM NaCl, 25 °C; 2 mM DTT added where stated
[3] = biological target: T3, BtuB XL_(loop) (BtuB V29C/V45C); test: as above

Binder: B1
- binding result (wild-type BtuB): binds

Binder: B2
- Kd [1]: 9.4 ± 0.3 µM

Binder: B3
- binding result [2]: binds
- binding result [3]: binds
